Test results as given in patent publication US20260008817A1, “CYCLIC PEPTIDE OR SALT THEREOF, AND USES THEREOF” (FUJIFILM Corporation, priority 2023, published 2026).
Positions of bridges follow the written chain, without caps; N, C: chain ends. No end group written: not given here. COCH2 = acetyl group that carries the bridge

biological target: T1, Recombinant Human FGFR1 alpha (IIIc) Fc Chimera Protein (Homo sapiens, UniProt P11362); assay: ELISA binding affinity of enzymatically synthesized peptide to FGFR; conditions: ELISA luminescence signal at 10 nmol/L peptide, SEQ ID NO: 239 standardized to 1; enzyme synthesis product
T1 construct: purchased R&D systems 658-FR-050
T1 sequence (P11362 with tags, fused parts or gaps limits assumed): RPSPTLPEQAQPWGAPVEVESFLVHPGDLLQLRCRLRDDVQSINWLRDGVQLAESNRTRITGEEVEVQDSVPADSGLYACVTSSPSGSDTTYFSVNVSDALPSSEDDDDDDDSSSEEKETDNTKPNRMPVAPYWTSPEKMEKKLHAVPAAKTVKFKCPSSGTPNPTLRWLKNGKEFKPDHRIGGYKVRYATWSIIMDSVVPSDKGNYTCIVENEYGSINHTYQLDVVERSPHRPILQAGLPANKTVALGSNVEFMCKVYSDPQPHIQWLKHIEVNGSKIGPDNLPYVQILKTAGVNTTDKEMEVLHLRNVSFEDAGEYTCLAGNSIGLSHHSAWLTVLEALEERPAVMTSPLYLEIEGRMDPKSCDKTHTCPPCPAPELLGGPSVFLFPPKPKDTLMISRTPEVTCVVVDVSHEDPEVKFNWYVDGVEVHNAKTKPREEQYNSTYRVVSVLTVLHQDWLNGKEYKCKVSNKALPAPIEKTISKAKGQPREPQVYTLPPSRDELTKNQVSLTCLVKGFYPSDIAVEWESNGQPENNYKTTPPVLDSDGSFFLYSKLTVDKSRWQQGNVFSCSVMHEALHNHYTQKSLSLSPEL
Procedure, shortened: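 Cell-free PUREfrex-translated cyclic peptides (Myc/HiBiT-tagged, quantified by HiBiT luminescence) bound 3 h at room temperature to immobilized FGFR1α(IIIc)-Fc, detected with anti-Myc and chemiluminescence. FGFR-specific signal at 10 nmol/L normalized to a reference cyclic peptide and graded A–D.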

| Substance | Evaluation result of binding affinity to FGFR |
| --- | --- |
| 156 (ICVYTFDAHAHQLHAALTK(COCH2)I; thioether 2-19 (inferred)) [compound 156] | A (0.7 or more) |
| 157 (ICVYTFDAHAHTLHAALTK(COCH2)I; thioether 2-19 (inferred)) [compound 157] | A (0.7 or more) |
| 158 (ICVYTFDAHAHDLHAALTK(COCH2)I; thioether 2-19 (inferred)) [compound 158] | A (0.7 or more) |
| 159 (ICVYTFDAHAHELHAALTK(COCH2)I; thioether 2-19 (inferred)) [compound 159] | A (0.7 or more) |
| 160 (ICVYTFDAHAHRLHAALTK(COCH2)I; thioether 2-19 (inferred)) [compound 160] | C (0.1 or more and less than 0.5) |
| 161 (ICVYTFDAHAHHLHAALTK(COCH2)I; thioether 2-19 (inferred)) [compound 161] | C (0.1 or more and less than 0.5) |
| 162 (ICVYTFDAHAHSAHAALTK(COCH2)I; thioether 2-19 (inferred)) [compound 162] | A (0.7 or more) |
| 163 (ICVYTFDAHAHSGHAALTK(COCH2)I; thioether 2-19 (inferred)) [compound 163] | C (0.1 or more and less than 0.5) |
| 164 (ICVYTFDAHAHSPHAALTK(COCH2)I; thioether 2-19 (inferred)) [compound 164] | C (0.1 or more and less than 0.5) |
| 165 (ICVYTFDAHAHSIHAALTK(COCH2)I; thioether 2-19 (inferred)) [compound 165] | A (0.7 or more) |
| 166 (ICVYTFDAHAHSVHAALTK(COCH2)I; thioether 2-19 (inferred)) [compound 166] | A (0.7 or more) |
| 167 (ICVYTFDAHAHSFHAALTK(COCH2)I; thioether 2-19 (inferred)) [compound 167] | A (0.7 or more) |
| 168 (ICVYTFDAHAHSYHAALTK(COCH2)I; thioether 2-19 (inferred)) [compound 168] | A (0.7 or more) |
| 169 (ICVYTFDAHAHSWHAALTK(COCH2)I; thioether 2-19 (inferred)) [compound 169] | C (0.1 or more and less than 0.5) |
| 170 (ICVYTFDAHAHSQHAALTK(COCH2)I; thioether 2-19 (inferred)) [compound 170] | C (0.1 or more and less than 0.5) |
| 171 (ICVYTFDAHAHSSHAALTK(COCH2)I; thioether 2-19 (inferred)) [compound 171] | B (0.5 or more and less than 0.7) |
| 172 (ICVYTFDAHAHSTHAALTK(COCH2)I; thioether 2-19 (inferred)) [compound 172] | B (0.5 or more and less than 0.7) |
| 173 (ICVYTFDAHAHSEHAALTK(COCH2)I; thioether 2-19 (inferred)) [compound 173] | C (0.1 or more and less than 0.5) |
| 174 (ICVYTFDAHAHSRHAALTK(COCH2)I; thioether 2-19 (inferred)) [compound 174] | C (0.1 or more and less than 0.5) |

| Substance | Evaluation result of binding affinity to FGFR |
| --- | --- |
| 175 (ICVYTFDAHAHSHHAALTK(COCH2)I; thioether 2-19 (inferred)) [compound 175] | B (0.5 or more and less than 0.7) |
| 176 (ICVYTFDAHAHSLAAALTK(COCH2)I; thioether 2-19 (inferred)) [compound 176] | A (0.7 or more) |
| 177 (ICVYTFDAHAHSLGAALTK(COCH2)I; thioether 2-19 (inferred)) [compound 177] | A (0.7 or more) |
| 178 (ICVYTFDAHAHSLPAALTK(COCH2)I; thioether 2-19 (inferred)) [compound 178] | A (0.7 or more) |
| 179 (ICVYTFDAHAHSLLAALTK(COCH2)I; thioether 2-19 (inferred)) [compound 179] | B (0.5 or more and less than 0.7) |
| 180 (ICVYTFDAHAHSLIAALTK(COCH2)I; thioether 2-19 (inferred)) [compound 180] | B (0.5 or more and less than 0.7) |
| 181 (ICVYTFDAHAHSLVAALTK(COCH2)I; thioether 2-19 (inferred)) [compound 181] | B (0.5 or more and less than 0.7) |
| 182 (ICVYTFDAHAHSLFAALTK(COCH2)I; thioether 2-19 (inferred)) [compound 182] | C (0.1 or more and less than 0.5) |
| 183 (ICVYTFDAHAHSLYAALTK(COCH2)I; thioether 2-19 (inferred)) [compound 183] | B (0.5 or more and less than 0.7) |
| 184 (ICVYTFDAHAHSLWAALTK(COCH2)I; thioether 2-19 (inferred)) [compound 184] | C (0.1 or more and less than 0.5) |
| 185 (ICVYTFDAHAHSLNAALTK(COCH2)I; thioether 2-19 (inferred)) [compound 185] | A (0.7 or more) |
| 186 (ICVYTFDAHAHSLQAALTK(COCH2)I; thioether 2-19 (inferred)) [compound 186] | A (0.7 or more) |
| 187 (ICVYTFDAHAHSLSAALTK(COCH2)I; thioether 2-19 (inferred)) [compound 187] | A (0.7 or more) |
| 188 (ICVYTFDAHAHSLTAALTK(COCH2)I; thioether 2-19 (inferred)) [compound 188] | A (0.7 or more) |
| 189 (ICVYTFDAHAHSLDAALTK(COCH2)I; thioether 2-19 (inferred)) [compound 189] | A (0.7 or more) |
| 190 (ICVYTFDAHAHSLEAALTK(COCH2)I; thioether 2-19 (inferred)) [compound 190] | A (0.7 or more) |
| 191 (ICVYTFDAHAHSLRAALTK(COCH2)I; thioether 2-19 (inferred)) [compound 191] | B (0.5 or more and less than 0.7) |
| 192 (ICVYTFDAHAHSLHGALTK(COCH2)I; thioether 2-19 (inferred)) [compound 192] | A (0.7 or more) |
| 193 (ICVYTFDAHAHSLHLALTK(COCH2)I; thioether 2-19 (inferred)) [compound 193] | C (0.1 or more and less than 0.5) |

| Substance | Evaluation result of binding affinity to FGFR |
| --- | --- |
| 194 (ICVYTFDAHAHSLHIALTK(COCH2)I; thioether 2-19 (inferred)) [compound 194] | C (0.1 or more and less than 0.5) |
| 195 (ICVYTFDAHAHSLHVALTK(COCH2)I; thioether 2-19 (inferred)) [compound 195] | C (0.1 or more and less than 0.5) |
| 196 (ICVYTFDAHAHSLHFALTK(COCH2)I; thioether 2-19 (inferred)) [compound 196] | C (0.1 or more and less than 0.5) |
| 197 (ICVYTFDAHAHSLHYALTK(COCH2)I; thioether 2-19 (inferred)) [compound 197] | C (0.1 or more and less than 0.5) |
| 198 (ICVYTFDAHAHSLHWALTK(COCH2)I; thioether 2-19 (inferred)) [compound 198] | C (0.1 or more and less than 0.5) |
| 199 (ICVYTFDAHAHSLHNALTK(COCH2)I; thioether 2-19 (inferred)) [compound 199] | A (0.7 or more) |
| 200 (ICVYTFDAHAHSLHQALTK(COCH2)I; thioether 2-19 (inferred)) [compound 200] | A (0.7 or more) |
| 201 (ICVYTFDAHAHSLHSALTK(COCH2)I; thioether 2-19 (inferred)) [compound 201] | A (0.7 or more) |
| 202 (ICVYTFDAHAHSLHTALTK(COCH2)I; thioether 2-19 (inferred)) [compound 202] | A (0.7 or more) |
| 203 (ICVYTFDAHAHSLHDALTK(COCH2)I; thioether 2-19 (inferred)) [compound 203] | A (0.7 or more) |
| 204 (ICVYTFDAHAHSLHEALTK(COCH2)I; thioether 2-19 (inferred)) [compound 204] | A (0.7 or more) |
| 205 (ICVYTFDAHAHSLHRALTK(COCH2)I; thioether 2-19 (inferred)) [compound 205] | A (0.7 or more) |
| 206 (ICVYTFDAHAHSLHHALTK(COCH2)I; thioether 2-19 (inferred)) [compound 206] | A (0.7 or more) |
| 207 (ICVYTFDAHAHSLHAILTK(COCH2)I; thioether 2-19 (inferred)) [compound 207] | C (0.1 or more and less than 0.5) |
| 208 (ICVYTFDAHAHSLHAVLTK(COCH2)I; thioether 2-19 (inferred)) [compound 208] | C (0.1 or more and less than 0.5) |
| 209 (ICVYTFDAHAHSLHASLTK(COCH2)I; thioether 2-19 (inferred)) [compound 209] | C (0.1 or more and less than 0.5) |
| 210 (ICVYTFDAHAHSLHAAITK(COCH2)I; thioether 2-19 (inferred)) [compound 210] | C (0.1 or more and less than 0.5) |
| 211 (ICVYTFDAHAHSLHAAVTK(COCH2)I; thioether 2-19 (inferred)) [compound 211] | C (0.1 or more and less than 0.5) |
| 212 (ICVYTFDAHAHSLHAAFTK(COCH2)I; thioether 2-19 (inferred)) [compound 212] | C (0.1 or more and less than 0.5) |
